The values that follow come from publication PMC6255812.

What is called stoichiometry N is a count of units in the complex or per binding partner.

Test [1] has as its target fluorescein-labeled regulatory domain of ACA8 (ACA8RD, residues 1-130) (UniProt Q9LF79). As to the kind of experiment: fluorescence polarisation; fluorescence anisotropy, displacement; CaM added to a preformed complex of ACA8core (POPC nanodiscs) and labelled ACA8RD; decrease in anisotropy.
Test [2] addresses full-length ACA8 (plasma-membrane Ca2+-ATPase ACA8) (UniProt Q9LF79).
Test [3] shares this target. As to the kind of experiment: native MS; DDM-solubilised ACA8, apo and with CaM; 200 mM ammonium acetate pH 8.3, 0.018% DDM; nanoESI, spectra at 200 V collision energy.

Chain of full-length ACA8 (plasma-membrane Ca2+-ATPase ACA8) (Q9LF79 whole entry): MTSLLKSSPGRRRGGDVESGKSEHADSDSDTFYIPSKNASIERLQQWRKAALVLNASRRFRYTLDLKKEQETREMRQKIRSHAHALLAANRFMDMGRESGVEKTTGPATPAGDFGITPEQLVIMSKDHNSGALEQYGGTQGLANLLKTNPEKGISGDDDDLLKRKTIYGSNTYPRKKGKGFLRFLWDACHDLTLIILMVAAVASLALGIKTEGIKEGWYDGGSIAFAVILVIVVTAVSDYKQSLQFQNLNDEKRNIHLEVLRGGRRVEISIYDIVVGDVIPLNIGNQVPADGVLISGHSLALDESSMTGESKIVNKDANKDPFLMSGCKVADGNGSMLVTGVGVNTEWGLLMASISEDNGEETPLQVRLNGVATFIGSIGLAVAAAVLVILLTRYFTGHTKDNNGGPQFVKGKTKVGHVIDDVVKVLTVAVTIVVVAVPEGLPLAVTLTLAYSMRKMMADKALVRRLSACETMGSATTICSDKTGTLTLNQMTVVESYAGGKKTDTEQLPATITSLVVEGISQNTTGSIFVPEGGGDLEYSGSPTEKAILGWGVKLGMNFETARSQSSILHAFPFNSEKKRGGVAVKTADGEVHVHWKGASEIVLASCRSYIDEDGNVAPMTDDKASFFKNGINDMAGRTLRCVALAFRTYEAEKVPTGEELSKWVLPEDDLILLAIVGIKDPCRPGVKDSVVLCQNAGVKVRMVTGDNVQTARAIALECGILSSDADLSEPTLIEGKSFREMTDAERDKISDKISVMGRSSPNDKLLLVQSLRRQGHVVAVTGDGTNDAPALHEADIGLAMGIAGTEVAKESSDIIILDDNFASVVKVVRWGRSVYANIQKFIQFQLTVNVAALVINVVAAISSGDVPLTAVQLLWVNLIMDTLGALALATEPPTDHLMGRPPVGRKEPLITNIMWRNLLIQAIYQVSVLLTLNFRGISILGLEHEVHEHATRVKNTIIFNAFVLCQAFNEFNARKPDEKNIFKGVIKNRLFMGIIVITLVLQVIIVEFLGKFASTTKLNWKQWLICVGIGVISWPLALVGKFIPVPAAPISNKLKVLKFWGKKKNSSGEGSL
Chain of fluorescein-labeled regulatory domain of ACA8 (ACA8RD, residues 1-130) (Q9LF79 other isoform, or with tags, fused parts or gaps): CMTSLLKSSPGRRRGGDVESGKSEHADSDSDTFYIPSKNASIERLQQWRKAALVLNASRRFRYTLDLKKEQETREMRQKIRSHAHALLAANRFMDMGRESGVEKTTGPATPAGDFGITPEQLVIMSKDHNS

Regarding “calmodulin CaM7 from A. thaliana (from UniProt P59220 1-149) (natural protein)”, in test [1], the K0.5 came out at 120 nM. Further, the ATPase activity (Baginski assay) of detergent solubilized ACA8 with CaM against basal activity without CaM in test [2] stood at 2 fold. The same substance displayed a stoichiometry N in test [3] of under 2.
